The labels stand for the following.
B1: MTSP-1 Q38H/I41S/D60bT/F60eS/Y60gW/D96K/ins97aV/T98P/F99L/C122S/G151H/Q175L/Q192D (enzyme)
chain: VVGGTDADEGEWPWQVSLHALGHGHSCGASLISPNWLVSAAHCYIDTRGSRWSDPTQWTAFLGLHDQSQRSAPGVQERRLKRIISHPFFNKFVPLDYDIALLELEKPAEYSSMVRPISLPDASHVFPAGKAIWVTGWGHTQYGGTHALILQKGEIRVINQTTCENLLPQLITPRMMCVGFLSGGVDSCDGDSGGPLSSVEADGRIFQAGVVSWGDGCAQRNKPGVYTRLPLFRDWIKENTGV
B2: MTSP-1 Q38H/I41S/D60bT/F60eS/Y60gW/D96K/F97G/ins97aV/T98P/F99L/C122S/G151H/Q175L (enzyme)
chain: VVGGTDADEGEWPWQVSLHALGHGHSCGASLISPNWLVSAAHCYIDTRGSRWSDPTQWTAFLGLHDQSQRSAPGVQERRLKRIISHPFFNKGVPLDYDIALLELEKPAEYSSMVRPISLPDASHVFPAGKAIWVTGWGHTQYGGTHALILQKGEIRVINQTTCENLLPQLITPRMMCVGFLSGGVDSCQGDSGGPLSSVEADGRIFQAGVVSWGDGCAQRNKPGVYTRLPLFRDWIKENTGV
B3: MTSP-1 protease domain I41D/F97T/F99L/C122S/G151N/Q175S/Q192T/D217A (enzyme)
chain: VVGGTDADEGEWPWQVSLHALGQGHDCGASLISPNWLVSAAHCYIDDRGFRYSDPTQWTAFLGLHDQSQRSAPGVQERRLKRIISHPFFNDTTLDYDIALLELEKPAEYSSMVRPISLPDASHVFPAGKAIWVTGWGHTQYGGTNALILQKGEIRVINQTTCENLLPQSITPRMMCVGFLSGGVDSCTGDSGGPLSSVEADGRIFQAGVVSWGAGCAQRNKPGVYTRLPLFRDWIKENTGV
B4: MTSP-1 protease domain I41D/F99L/C122S/G151Q/Q175R/Q192V/D217L (enzyme)
chain: VVGGTDADEGEWPWQVSLHALGQGHDCGASLISPNWLVSAAHCYIDDRGFRYSDPTQWTAFLGLHDQSQRSAPGVQERRLKRIISHPFFNDFTLDYDIALLELEKPAEYSSMVRPISLPDASHVFPAGKAIWVTGWGHTQYGGTQALILQKGEIRVINQTTCENLLPQRITPRMMCVGFLSGGVDSCVGDSGGPLSSVEADGRIFQAGVVSWGLGCAQRNKPGVYTRLPLFRDWIKENTGV
B5: MTSP-1 protease domain I41E/F97V/F99L/C122S/G151N/Q192S/D217H (enzyme)
chain: VVGGTDADEGEWPWQVSLHALGQGHECGASLISPNWLVSAAHCYIDDRGFRYSDPTQWTAFLGLHDQSQRSAPGVQERRLKRIISHPFFNDVTLDYDIALLELEKPAEYSSMVRPISLPDASHVFPAGKAIWVTGWGHTQYGGTNALILQKGEIRVINQTTCENLLPQQITPRMMCVGFLSGGVDSCSGDSGGPLSSVEADGRIFQAGVVSWGHGCAQRNKPGVYTRLPLFRDWIKENTGV
B6: MTSP-1 protease domain I41D/F97R/F99L/C122S/G151Q/Q175R/D217L (enzyme)
chain: VVGGTDADEGEWPWQVSLHALGQGHDCGASLISPNWLVSAAHCYIDDRGFRYSDPTQWTAFLGLHDQSQRSAPGVQERRLKRIISHPFFNDRTLDYDIALLELEKPAEYSSMVRPISLPDASHVFPAGKAIWVTGWGHTQYGGTQALILQKGEIRVINQTTCENLLPQRITPRMMCVGFLSGGVDSCQGDSGGPLSSVEADGRIFQAGVVSWGLGCAQRNKPGVYTRLPLFRDWIKENTGV
B7: MTSP-1 protease domain I41E/F97V/F99L/C122S/G151N/Q175L/Q192S (enzyme)
chain: VVGGTDADEGEWPWQVSLHALGQGHECGASLISPNWLVSAAHCYIDDRGFRYSDPTQWTAFLGLHDQSQRSAPGVQERRLKRIISHPFFNDVTLDYDIALLELEKPAEYSSMVRPISLPDASHVFPAGKAIWVTGWGHTQYGGTNALILQKGEIRVINQTTCENLLPQLITPRMMCVGFLSGGVDSCSGDSGGPLSSVEADGRIFQAGVVSWGDGCAQRNKPGVYTRLPLFRDWIKENTGV
B8: MTSP-1 protease domain F97R/F99L/C122S/G151Q/Q175R/Q192V/D217L (enzyme)
chain: VVGGTDADEGEWPWQVSLHALGQGHICGASLISPNWLVSAAHCYIDDRGFRYSDPTQWTAFLGLHDQSQRSAPGVQERRLKRIISHPFFNDRTLDYDIALLELEKPAEYSSMVRPISLPDASHVFPAGKAIWVTGWGHTQYGGTQALILQKGEIRVINQTTCENLLPQRITPRMMCVGFLSGGVDSCVGDSGGPLSSVEADGRIFQAGVVSWGLGCAQRNKPGVYTRLPLFRDWIKENTGV
B9: MTSP-1 protease domain I41E/F97A/F99M/C122S/G151N/Q175R/Q192S/D217E (enzyme)
chain: VVGGTDADEGEWPWQVSLHALGQGHECGASLISPNWLVSAAHCYIDDRGFRYSDPTQWTAFLGLHDQSQRSAPGVQERRLKRIISHPFFNDATMDYDIALLELEKPAEYSSMVRPISLPDASHVFPAGKAIWVTGWGHTQYGGTNALILQKGEIRVINQTTCENLLPQRITPRMMCVGFLSGGVDSCSGDSGGPLSSVEADGRIFQAGVVSWGEGCAQRNKPGVYTRLPLFRDWIKENTGV
B10: MTSP-1 protease domain I41G/F99L/C122S/G151N/Q175I/Q192T (enzyme)
chain: VVGGTDADEGEWPWQVSLHALGQGHGCGASLISPNWLVSAAHCYIDDRGFRYSDPTQWTAFLGLHDQSQRSAPGVQERRLKRIISHPFFNDFTLDYDIALLELEKPAEYSSMVRPISLPDASHVFPAGKAIWVTGWGHTQYGGTNALILQKGEIRVINQTTCENLLPQIITPRMMCVGFLSGGVDSCTGDSGGPLSSVEADGRIFQAGVVSWGDGCAQRNKPGVYTRLPLFRDWIKENTGV
B11: MTSP-1 protease domain I41E/F97V/F99L/C122S/G151N/Q175L/D217H (enzyme)
chain: VVGGTDADEGEWPWQVSLHALGQGHECGASLISPNWLVSAAHCYIDDRGFRYSDPTQWTAFLGLHDQSQRSAPGVQERRLKRIISHPFFNDVTLDYDIALLELEKPAEYSSMVRPISLPDASHVFPAGKAIWVTGWGHTQYGGTNALILQKGEIRVINQTTCENLLPQLITPRMMCVGFLSGGVDSCQGDSGGPLSSVEADGRIFQAGVVSWGHGCAQRNKPGVYTRLPLFRDWIKENTGV
B12: MTSP-1 protease domain I41D/F97R/F99L/C122S/G151Q/Q175R/Q192V (enzyme)
chain: VVGGTDADEGEWPWQVSLHALGQGHDCGASLISPNWLVSAAHCYIDDRGFRYSDPTQWTAFLGLHDQSQRSAPGVQERRLKRIISHPFFNDRTLDYDIALLELEKPAEYSSMVRPISLPDASHVFPAGKAIWVTGWGHTQYGGTQALILQKGEIRVINQTTCENLLPQRITPRMMCVGFLSGGVDSCVGDSGGPLSSVEADGRIFQAGVVSWGDGCAQRNKPGVYTRLPLFRDWIKENTGV
B13: MTSP-1 protease domain I41G/F99L/C122S/Q175I/Q192T/D217T (enzyme)
chain: VVGGTDADEGEWPWQVSLHALGQGHGCGASLISPNWLVSAAHCYIDDRGFRYSDPTQWTAFLGLHDQSQRSAPGVQERRLKRIISHPFFNDFTLDYDIALLELEKPAEYSSMVRPISLPDASHVFPAGKAIWVTGWGHTQYGGTGALILQKGEIRVINQTTCENLLPQIITPRMMCVGFLSGGVDSCTGDSGGPLSSVEADGRIFQAGVVSWGTGCAQRNKPGVYTRLPLFRDWIKENTGV
B14: MTSP-1 protease domain I41G/F99L/C122S/G151N/Q192T/D217T (enzyme)
chain: VVGGTDADEGEWPWQVSLHALGQGHGCGASLISPNWLVSAAHCYIDDRGFRYSDPTQWTAFLGLHDQSQRSAPGVQERRLKRIISHPFFNDFTLDYDIALLELEKPAEYSSMVRPISLPDASHVFPAGKAIWVTGWGHTQYGGTNALILQKGEIRVINQTTCENLLPQQITPRMMCVGFLSGGVDSCTGDSGGPLSSVEADGRIFQAGVVSWGTGCAQRNKPGVYTRLPLFRDWIKENTGV
B15: MTSP-1 protease domain F97V/F99L/C122S/G151N/Q175L/Q192S/D217H (enzyme)
chain: VVGGTDADEGEWPWQVSLHALGQGHICGASLISPNWLVSAAHCYIDDRGFRYSDPTQWTAFLGLHDQSQRSAPGVQERRLKRIISHPFFNDVTLDYDIALLELEKPAEYSSMVRPISLPDASHVFPAGKAIWVTGWGHTQYGGTNALILQKGEIRVINQTTCENLLPQLITPRMMCVGFLSGGVDSCSGDSGGPLSSVEADGRIFQAGVVSWGHGCAQRNKPGVYTRLPLFRDWIKENTGV
B16: MTSP-1 protease domain I41D/F97R/F99L/C122S/G151Q/Q192V/D217L (enzyme)
chain: VVGGTDADEGEWPWQVSLHALGQGHDCGASLISPNWLVSAAHCYIDDRGFRYSDPTQWTAFLGLHDQSQRSAPGVQERRLKRIISHPFFNDRTLDYDIALLELEKPAEYSSMVRPISLPDASHVFPAGKAIWVTGWGHTQYGGTQALILQKGEIRVINQTTCENLLPQQITPRMMCVGFLSGGVDSCVGDSGGPLSSVEADGRIFQAGVVSWGLGCAQRNKPGVYTRLPLFRDWIKENTGV
B17: MTSP-1 protease domain I41E/F99L/C122S/G151N/Q175L/Q192S/D217H (enzyme)
chain: VVGGTDADEGEWPWQVSLHALGQGHECGASLISPNWLVSAAHCYIDDRGFRYSDPTQWTAFLGLHDQSQRSAPGVQERRLKRIISHPFFNDFTLDYDIALLELEKPAEYSSMVRPISLPDASHVFPAGKAIWVTGWGHTQYGGTNALILQKGEIRVINQTTCENLLPQLITPRMMCVGFLSGGVDSCSGDSGGPLSSVEADGRIFQAGVVSWGHGCAQRNKPGVYTRLPLFRDWIKENTGV
B18: MTSP-1 protease domain I41E/F97R/F99L/C122S/G151Q/Q175G/Q192T (enzyme)
chain: VVGGTDADEGEWPWQVSLHALGQGHECGASLISPNWLVSAAHCYIDDRGFRYSDPTQWTAFLGLHDQSQRSAPGVQERRLKRIISHPFFNDRTLDYDIALLELEKPAEYSSMVRPISLPDASHVFPAGKAIWVTGWGHTQYGGTQALILQKGEIRVINQTTCENLLPQGITPRMMCVGFLSGGVDSCTGDSGGPLSSVEADGRIFQAGVVSWGDGCAQRNKPGVYTRLPLFRDWIKENTGV
B19: MTSP-1 protease domain I41E/F97V/F99L/C122S/Q175L/Q192S/D217H (enzyme)
chain: VVGGTDADEGEWPWQVSLHALGQGHECGASLISPNWLVSAAHCYIDDRGFRYSDPTQWTAFLGLHDQSQRSAPGVQERRLKRIISHPFFNDVTLDYDIALLELEKPAEYSSMVRPISLPDASHVFPAGKAIWVTGWGHTQYGGTGALILQKGEIRVINQTTCENLLPQLITPRMMCVGFLSGGVDSCSGDSGGPLSSVEADGRIFQAGVVSWGHGCAQRNKPGVYTRLPLFRDWIKENTGV
B20: MTSP-1 protease domain I41D/F97R/F99L/C122S/Q175R/Q192V/D217L (enzyme)
chain: VVGGTDADEGEWPWQVSLHALGQGHDCGASLISPNWLVSAAHCYIDDRGFRYSDPTQWTAFLGLHDQSQRSAPGVQERRLKRIISHPFFNDRTLDYDIALLELEKPAEYSSMVRPISLPDASHVFPAGKAIWVTGWGHTQYGGTGALILQKGEIRVINQTTCENLLPQRITPRMMCVGFLSGGVDSCVGDSGGPLSSVEADGRIFQAGVVSWGLGCAQRNKPGVYTRLPLFRDWIKENTGV

The target of this assay is plasma purified human complement protein C3 (human) (UniProt P01024). In words: cell-based or functional assay.
Chain of plasma purified human complement protein C3 (human) (P01024 23-667, chain 1 of 2): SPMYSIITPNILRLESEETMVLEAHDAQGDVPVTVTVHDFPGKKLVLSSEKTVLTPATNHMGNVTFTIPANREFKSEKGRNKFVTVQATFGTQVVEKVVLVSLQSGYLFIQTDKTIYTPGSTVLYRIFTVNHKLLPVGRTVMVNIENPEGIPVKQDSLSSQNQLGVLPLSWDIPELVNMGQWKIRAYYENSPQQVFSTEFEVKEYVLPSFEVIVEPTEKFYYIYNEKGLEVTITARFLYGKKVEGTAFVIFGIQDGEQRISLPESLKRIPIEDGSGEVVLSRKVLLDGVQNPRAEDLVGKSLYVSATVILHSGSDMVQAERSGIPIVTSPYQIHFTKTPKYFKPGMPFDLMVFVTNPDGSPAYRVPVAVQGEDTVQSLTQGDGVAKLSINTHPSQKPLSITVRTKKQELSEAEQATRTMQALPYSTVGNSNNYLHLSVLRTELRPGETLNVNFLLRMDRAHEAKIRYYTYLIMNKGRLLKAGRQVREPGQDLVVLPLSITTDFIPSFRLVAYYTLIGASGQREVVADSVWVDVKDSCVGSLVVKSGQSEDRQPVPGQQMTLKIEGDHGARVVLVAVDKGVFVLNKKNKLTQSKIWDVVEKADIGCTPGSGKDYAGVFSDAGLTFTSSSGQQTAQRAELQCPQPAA
Chain of plasma purified human complement protein C3 (human) (P01024 672-1663, chain 2 of 2): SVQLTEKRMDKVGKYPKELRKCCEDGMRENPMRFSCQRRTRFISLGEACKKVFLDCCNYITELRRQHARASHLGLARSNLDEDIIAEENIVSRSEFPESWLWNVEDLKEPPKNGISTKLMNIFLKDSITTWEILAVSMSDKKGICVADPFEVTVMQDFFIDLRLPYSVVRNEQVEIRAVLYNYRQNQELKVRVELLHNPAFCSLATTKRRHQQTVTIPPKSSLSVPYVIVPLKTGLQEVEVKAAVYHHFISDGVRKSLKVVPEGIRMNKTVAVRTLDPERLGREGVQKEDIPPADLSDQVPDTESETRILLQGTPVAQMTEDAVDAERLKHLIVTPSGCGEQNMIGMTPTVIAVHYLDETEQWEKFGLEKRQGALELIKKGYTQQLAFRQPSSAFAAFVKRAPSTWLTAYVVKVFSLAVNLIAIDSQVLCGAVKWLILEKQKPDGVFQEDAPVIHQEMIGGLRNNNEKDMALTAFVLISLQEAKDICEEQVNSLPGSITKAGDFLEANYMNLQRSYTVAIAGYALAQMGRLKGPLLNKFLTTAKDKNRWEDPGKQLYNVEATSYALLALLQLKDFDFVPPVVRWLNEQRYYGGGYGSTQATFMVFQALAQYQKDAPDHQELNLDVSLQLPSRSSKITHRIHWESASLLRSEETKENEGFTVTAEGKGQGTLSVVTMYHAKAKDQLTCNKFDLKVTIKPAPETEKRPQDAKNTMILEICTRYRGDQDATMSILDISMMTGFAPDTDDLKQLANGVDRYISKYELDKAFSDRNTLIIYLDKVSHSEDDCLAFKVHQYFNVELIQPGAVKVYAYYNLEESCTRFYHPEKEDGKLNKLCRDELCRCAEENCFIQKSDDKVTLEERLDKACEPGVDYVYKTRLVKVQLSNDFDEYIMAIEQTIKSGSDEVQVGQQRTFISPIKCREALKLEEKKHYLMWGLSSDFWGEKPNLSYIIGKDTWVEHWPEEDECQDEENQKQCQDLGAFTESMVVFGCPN
For B1, the EC50 of hC3 cleavage was 12 nM.
Turning to B2, the EC50 of hC3 cleavage was 1.45 nM.
B3 displayed an EC50 hC3 cleavage of 70.9 nM.
Still for that read-out and setting: the figure for B4 is 31.6 nM.
Consider B5, for which the EC50 hC3 cleavage was determined as 42.2 nM.
The same measure, in the same setting: the figure for B6 is 19.4 nM; for B7 it is 51.2 nM.
Still for that read-out and setting: the figure for B8 is 137 nM.
With B9, the EC50 hC3 cleavage is 485 nM.
The molecule B10 gave an EC50 hC3 cleavage of 51.6 nM.
Regarding B11, the EC50 hC3 cleavage came to 16.5 nM.
As for B12, the EC50 hC3 cleavage was found to be 79.4 nM.
Still for that read-out and setting: the figure for B13 is 81.8 nM; for B14 it is 44.7 nM; for B15 it is 91.6 nM.
Regarding B16, the EC50 hC3 cleavage came out at 42.3 nM.
The same measure, in the same setting: the figure for B17 is 27.1 nM; for B18 it is 41.1 nM; for B19 it is 44.3 nM.
The same measure, in the same setting: the figure for B20 is 50.6 nM.
